Laboratory results from PMC10786891, “Massively parallel profiling of RNA-targeting CRISPR-Cas13d”.

T1: EsCas13d, nuclease-dead (Eubacterium siraeum, UniProt B0MS50, R295A;H300A;R849A;H854A)
T1 sequence: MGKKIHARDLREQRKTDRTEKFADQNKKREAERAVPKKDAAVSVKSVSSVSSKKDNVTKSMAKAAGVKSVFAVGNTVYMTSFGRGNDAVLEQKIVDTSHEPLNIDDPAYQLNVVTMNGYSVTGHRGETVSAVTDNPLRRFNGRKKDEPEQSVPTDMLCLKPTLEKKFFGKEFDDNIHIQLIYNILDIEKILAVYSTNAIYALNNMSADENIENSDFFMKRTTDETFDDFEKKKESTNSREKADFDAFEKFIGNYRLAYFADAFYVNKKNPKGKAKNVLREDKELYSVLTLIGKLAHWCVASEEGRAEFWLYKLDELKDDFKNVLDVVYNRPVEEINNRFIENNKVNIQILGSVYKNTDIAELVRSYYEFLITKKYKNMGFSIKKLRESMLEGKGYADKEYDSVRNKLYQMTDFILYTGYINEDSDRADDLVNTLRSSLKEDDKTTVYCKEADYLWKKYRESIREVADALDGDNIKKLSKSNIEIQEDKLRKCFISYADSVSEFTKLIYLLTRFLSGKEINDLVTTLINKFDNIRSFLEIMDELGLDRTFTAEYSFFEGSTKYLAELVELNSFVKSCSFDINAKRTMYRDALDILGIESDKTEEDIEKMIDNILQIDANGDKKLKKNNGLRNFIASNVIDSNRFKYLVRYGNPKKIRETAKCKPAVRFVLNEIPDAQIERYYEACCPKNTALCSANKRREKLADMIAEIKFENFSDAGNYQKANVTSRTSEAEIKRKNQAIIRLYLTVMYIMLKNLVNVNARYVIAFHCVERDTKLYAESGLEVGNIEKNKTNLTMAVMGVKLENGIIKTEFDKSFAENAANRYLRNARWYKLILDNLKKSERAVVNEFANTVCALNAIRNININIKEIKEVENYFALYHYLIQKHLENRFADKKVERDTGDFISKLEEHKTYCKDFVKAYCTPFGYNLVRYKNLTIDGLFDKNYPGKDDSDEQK

B1: target 2 MT 5'PFS UCU 3'PFS AGA (mixed)
RNA 1: CACCCGUGCAAAAUUGCAGGGGUCUAAAACCUUCUCCAAAUUGUUUCAUCCU
RNA 2: GGGAAUGGAUCCACAUCUACGAAUUCUCUAGGAUGAAACAAUUUGGAGAAGAGAAGAUCGGAAGAGCACACGU
B2: target 2 MT 5'PFS UGA 3'PFS UCC (mixed)
RNA 1: CACCCGUGCAAAAUUGCAGGGGUCUAAAACCUUCUCCAAAUUGUUUCAUCCU
RNA 2: GGGAAUGGAUCCACAUCUACGAAUUCUGAAGGAUGAAACAAUUUGGAGAAGUCCAGAUCGGAAGAGCACACGU
B3: target 2 MT 5'PFS GCC 3'PFS CGC (mixed)
RNA 1: CACCCGUGCAAAAUUGCAGGGGUCUAAAACCUUCUCCAAAUUGUUUCAUCCU
RNA 2: GGGAAUGGAUCCACAUCUACGAAUUCGCCAGGAUGAAACAAUUUGGAGAAGCGCAGAUCGGAAGAGCACACGU
B4: target 2 MT 5'PFS CGC 3'PFS CAG (mixed)
RNA 1: CACCCGUGCAAAAUUGCAGGGGUCUAAAACCUUCUCCAAAUUGUUUCAUCCU
RNA 2: GGGAAUGGAUCCACAUCUACGAAUUCCGCAGGAUGAAACAAUUUGGAGAAGCAGAGAUCGGAAGAGCACACGU
B5: target 2 MT 5'PFS GGU 3'PFS UCU (mixed)
RNA 1: CACCCGUGCAAAAUUGCAGGGGUCUAAAACCUUCUCCAAAUUGUUUCAUCCU
RNA 2: GGGAAUGGAUCCACAUCUACGAAUUCGGUAGGAUGAAACAAUUUGGAGAAGUCUAGAUCGGAAGAGCACACGU
B6: target 2 MT 5'PFS GAU 3'PFS CAU (mixed)
RNA 1: CACCCGUGCAAAAUUGCAGGGGUCUAAAACCUUCUCCAAAUUGUUUCAUCCU
RNA 2: GGGAAUGGAUCCACAUCUACGAAUUCGAUAGGAUGAAACAAUUUGGAGAAGCAUAGAUCGGAAGAGCACACGU
B7: target 2 MT 5'PFS GGA 3'PFS CUC (mixed)
RNA 1: CACCCGUGCAAAAUUGCAGGGGUCUAAAACCUUCUCCAAAUUGUUUCAUCCU
RNA 2: GGGAAUGGAUCCACAUCUACGAAUUCGGAAGGAUGAAACAAUUUGGAGAAGCUCAGAUCGGAAGAGCACACGU
B8: target 2 MT 5'PFS GCC 3'PFS AGG (mixed)
RNA 1: CACCCGUGCAAAAUUGCAGGGGUCUAAAACCUUCUCCAAAUUGUUUCAUCCU
RNA 2: GGGAAUGGAUCCACAUCUACGAAUUCGCCAGGAUGAAACAAUUUGGAGAAGAGGAGAUCGGAAGAGCACACGU
B9: target 2 MT 5'PFS CGC 3'PFS CAC (mixed)
RNA 1: CACCCGUGCAAAAUUGCAGGGGUCUAAAACCUUCUCCAAAUUGUUUCAUCCU
RNA 2: GGGAAUGGAUCCACAUCUACGAAUUCCGCAGGAUGAAACAAUUUGGAGAAGCACAGAUCGGAAGAGCACACGU
B10: target 2 MT 5'PFS UCG 3'PFS AGA (mixed)
RNA 1: CACCCGUGCAAAAUUGCAGGGGUCUAAAACCUUCUCCAAAUUGUUUCAUCCU
RNA 2: GGGAAUGGAUCCACAUCUACGAAUUCUCGAGGAUGAAACAAUUUGGAGAAGAGAAGAUCGGAAGAGCACACGU
B11: target 2 MT 5'PFS GGA 3'PFS CUU (mixed)
RNA 1: CACCCGUGCAAAAUUGCAGGGGUCUAAAACCUUCUCCAAAUUGUUUCAUCCU
RNA 2: GGGAAUGGAUCCACAUCUACGAAUUCGGAAGGAUGAAACAAUUUGGAGAAGCUUAGAUCGGAAGAGCACACGU
B12: target 2 MT 5'PFS GCC 3'PFS AGC (mixed)
RNA 1: CACCCGUGCAAAAUUGCAGGGGUCUAAAACCUUCUCCAAAUUGUUUCAUCCU
RNA 2: GGGAAUGGAUCCACAUCUACGAAUUCGCCAGGAUGAAACAAUUUGGAGAAGAGCAGAUCGGAAGAGCACACGU
B13: target 2 MT 5'PFS UCG 3'PFS AGG (mixed)
RNA 1: CACCCGUGCAAAAUUGCAGGGGUCUAAAACCUUCUCCAAAUUGUUUCAUCCU
RNA 2: GGGAAUGGAUCCACAUCUACGAAUUCUCGAGGAUGAAACAAUUUGGAGAAGAGGAGAUCGGAAGAGCACACGU
B14: target 2 MT 5'PFS GGU 3'PFS UCG (mixed)
RNA 1: CACCCGUGCAAAAUUGCAGGGGUCUAAAACCUUCUCCAAAUUGUUUCAUCCU
RNA 2: GGGAAUGGAUCCACAUCUACGAAUUCGGUAGGAUGAAACAAUUUGGAGAAGUCGAGAUCGGAAGAGCACACGU
B15: target 2 MT 5'PFS GGA 3'PFS CUG (mixed)
RNA 1: CACCCGUGCAAAAUUGCAGGGGUCUAAAACCUUCUCCAAAUUGUUUCAUCCU
RNA 2: GGGAAUGGAUCCACAUCUACGAAUUCGGAAGGAUGAAACAAUUUGGAGAAGCUGAGAUCGGAAGAGCACACGU
B16: target 2 MT 5'PFS GCC 3'PFS AGA (mixed)
RNA 1: CACCCGUGCAAAAUUGCAGGGGUCUAAAACCUUCUCCAAAUUGUUUCAUCCU
RNA 2: GGGAAUGGAUCCACAUCUACGAAUUCGCCAGGAUGAAACAAUUUGGAGAAGAGAAGAUCGGAAGAGCACACGU
B17: target 2 MT 5'PFS GCC 3'PFS CGA (mixed)
RNA 1: CACCCGUGCAAAAUUGCAGGGGUCUAAAACCUUCUCCAAAUUGUUUCAUCCU
RNA 2: GGGAAUGGAUCCACAUCUACGAAUUCGCCAGGAUGAAACAAUUUGGAGAAGCGAAGAUCGGAAGAGCACACGU
B18: target 2 MT 5'PFS GGA 3'PFS CUA (mixed)
RNA 1: CACCCGUGCAAAAUUGCAGGGGUCUAAAACCUUCUCCAAAUUGUUUCAUCCU
RNA 2: GGGAAUGGAUCCACAUCUACGAAUUCGGAAGGAUGAAACAAUUUGGAGAAGCUAAGAUCGGAAGAGCACACGU
B19: target 2 MT 5'PFS CGC 3'PFS CAA (mixed)
RNA 1: CACCCGUGCAAAAUUGCAGGGGUCUAAAACCUUCUCCAAAUUGUUUCAUCCU
RNA 2: GGGAAUGGAUCCACAUCUACGAAUUCCGCAGGAUGAAACAAUUUGGAGAAGCAAAGAUCGGAAGAGCACACGU
B20: target 2 MT 5'PFS AAC 3'PFS AUC (mixed)
RNA 1: CACCCGUGCAAAAUUGCAGGGGUCUAAAACCUUCUCCAAAUUGUUUCAUCCU
RNA 2: GGGAAUGGAUCCACAUCUACGAAUUCAACAGGAUGAAACAAUUUGGAGAAGAUCAGAUCGGAAGAGCACACGU
B21: target 2 MT 5'PFS GUA 3'PFS AAC (mixed)
RNA 1: CACCCGUGCAAAAUUGCAGGGGUCUAAAACCUUCUCCAAAUUGUUUCAUCCU
RNA 2: GGGAAUGGAUCCACAUCUACGAAUUCGUAAGGAUGAAACAAUUUGGAGAAGAACAGAUCGGAAGAGCACACGU
B22: target 2 MT 5'PFS UGA 3'PFS UCA (mixed)
RNA 1: CACCCGUGCAAAAUUGCAGGGGUCUAAAACCUUCUCCAAAUUGUUUCAUCCU
RNA 2: GGGAAUGGAUCCACAUCUACGAAUUCUGAAGGAUGAAACAAUUUGGAGAAGUCAAGAUCGGAAGAGCACACGU
B23: target 2 MT 5'PFS UGA 3'PFS UCG (mixed)
RNA 1: CACCCGUGCAAAAUUGCAGGGGUCUAAAACCUUCUCCAAAUUGUUUCAUCCU
RNA 2: GGGAAUGGAUCCACAUCUACGAAUUCUGAAGGAUGAAACAAUUUGGAGAAGUCGAGAUCGGAAGAGCACACGU
B24: target 2 MT 5'PFS CCC 3'PFS CCU (mixed)
RNA 1: CACCCGUGCAAAAUUGCAGGGGUCUAAAACCUUCUCCAAAUUGUUUCAUCCU
RNA 2: GGGAAUGGAUCCACAUCUACGAAUUCCCCAGGAUGAAACAAUUUGGAGAAGCCUAGAUCGGAAGAGCACACGU
B25: target 2 MT 5'PFS AAC 3'PFS AUA (mixed)
RNA 1: CACCCGUGCAAAAUUGCAGGGGUCUAAAACCUUCUCCAAAUUGUUUCAUCCU
RNA 2: GGGAAUGGAUCCACAUCUACGAAUUCAACAGGAUGAAACAAUUUGGAGAAGAUAAGAUCGGAAGAGCACACGU
B26: target 2 MT 5'PFS GCC 3'PFS CGG (mixed)
RNA 1: CACCCGUGCAAAAUUGCAGGGGUCUAAAACCUUCUCCAAAUUGUUUCAUCCU
RNA 2: GGGAAUGGAUCCACAUCUACGAAUUCGCCAGGAUGAAACAAUUUGGAGAAGCGGAGAUCGGAAGAGCACACGU
B27: target 1 A1G,G13A (mixed)
RNA 1: CACCCGUGCAAAAAUGCAGGGGUCUAAAACUGAGCGGAUAACCUCUCUAUGG
RNA 2: GGGAAUGGAUCCACAUCUACGAAUUCGUACCAUAGAGAAGUUAUCCGCUCGCCGAGAUCGGAAGAGCACACGU
B28: target 1 G13A (mixed)
RNA 1: CACCCGUGCAAAAAUGCAGGGGUCUAAAACUGAGCGGAUAACCUCUCUAUGG
RNA 2: GGGAAUGGAUCCACAUCUACGAAUUCGUACCAUAGAGAAGUUAUCCGCUCACCGAGAUCGGAAGAGCACACGU

These binders were tested against T1, EsCas13d, nuclease-dead (assay: crRNA (strand 1, pre-loaded); Mg2+; 40 mM Tris-HCl pH 7.5, 150 mM NaCl, 6 mM MgCl2, 1 mM DTT, 0.1% Tween-20, 0.2 mg/ml BSA; 25 C; 10 min per concentration, then washed). Conditions: tags: His6-TwinStrep-SUMO cleaved; N-terminal SNAP kept (SNAP-Surface 488); label: 3' end held by stalled T7 RNA polymerase.
Binder B1 has a Kd of 0.04 ± 0.018 µM.
In the case of B2, the Kd is reported as roughly 0.049 µM.
With B3 the Kd was 0.0114 ± 0.0016 µM.
In the case of B4, the Kd is reported as 0.0036 ± 0.0006 µM.
B5 gave a Kd of 0.038 ± 0.007 µM.
B6 showed a Kd of 0.009 ± 0.0014 µM.
Work on B7 yielded a Kd of 0.0134 ± 0.0015 µM.
Work on B8 yielded a Kd of 0.0164 ± 0.0024 µM.
With B9 the Kd was 0.0051 ± 0.0005 µM.
Binder B10 has a Kd of 0.0179 ± 0.0023 µM.
B11 showed a Kd of 0.0105 ± 0.0008 µM.
In the case of B12, the Kd is reported as 0.0105 ± 0.0012 µM.
For B13, the Kd was 0.035 ± 0.009 µM.
B14 gave a Kd of 0.029 ± 0.004 µM.
In the case of B15, the Kd is reported as 0.0092 ± 0.0008 µM.
B16 was tested, and the Kd was 0.0105 ± 0.0018 µM.
For B17, the Kd was 0.014 ± 0.0033 µM.
For B18, the Kd was 0.0099 ± 0.0013 µM.
B19 showed a Kd of 0.0074 ± 0.0025 µM.
Work on B20 yielded a Kd of 0.0038 ± 0.0009 µM.
B21 showed a Kd of 0.0062 ± 0.0005 µM.
B22 was tested, and the Kd was 0.014 ± 0.006 µM.
B23 was tested, and the Kd was 0.013 ± 0.0017 µM.
For B24, the Kd was 0.0076 ± 0.0018 µM.
B25 showed a Kd of 0.0061 ± 0.0014 µM.
For B26, the Kd was 0.0135 ± 0.0022 µM.
B27 gave a Kd of 0.0062 ± 0.0008 µM.
With B28 the Kd was 0.0049 ± 0.0004 µM.
